Test results published in patent US20210284740A1.

B1: MHA112 monoclonal antibody (mAb) (antibody, mouse IgM, V domains shown)
VH: QVQLKESGPGLVAPSQSLSITCTVSGFSLTSYGVDWVRQPPGKGLEWLGVIWGGGSTNYNSALMSRLSISKDNSKSQVFLKMNSLQTDDTAMYYCAKHSKGGYFDVWGTGTTVTVSS
VL: EIVLTQSPAITAASLGQKVTITCSASSSVSYMHWYQQKSGTSPKPWIYEISKLASGVPARFSGSGSGTSYSLTISSMEAEDAAIYYCQQWNYPLITFGAGTKLELK

Assays:
[1] = target: peripheral lymph node addressin (PNAd) expressed on CHO cells; experiment: cell-based ELISA on fixed CHO-PNAd cells, antibody titrated 1 ng/ml to 300 ug/ml, fitted curve
[2] = target: peripheral lymph node addressin (PNAd) expressed on CHO cells; experiment: cell-based ELISA on fixed CHO-PNAd cells, HRP-conjugated secondary antibody, TMB, OD450
[3] = target: peripheral lymph node addressin (PNAd) expressed on CHO cells; experiment: cell-based ELISA on fixed CHO-PNAd cells; compared with the reference MECA79

Row | Molecule | Kd [1] [nM] | EC50 (read off the curve) [2] [mg/L] | binding affinity higher than MECA79 (percent) [3] [%]
1 | MECA79 monoclonal antibody | 1.41 | 5 | –
2 | B1 | 0.97 | 4 | 30
